1 substance from PMC10891854 can be followed below.

As a reminder, the stoichiometry N is a count of units in the complex or per binding partner.

In this assay the target is recombinant Pseudothermotoga hypogea iron-containing alcohol dehydrogenase (Pseudothermotoga hypogea). Put plainly: SEC; Superdex 200 (2.6 x 60 cm), 50 mM Tris-HCl pH 7.8, 100 mM KCl, 2 mL/min; native size worked out from the elution volume against standard proteins and compared with the subunit size by SDS-PAGE.

For “recombinant Pseudothermotoga hypogea iron-containing alcohol dehydrogenase (enzyme)”, the stoichiometry N was found to be 2.
